Laboratory results taken from paper PMC10696883, “Discovery of a non-canonical GRHL1 binding site using deep convolutional and recurrent neural networks”.

B1: Pos_Ctrl (dsDNA)
DNA 1: GGGCAAAACCGGTTTTGCGG
DNA 2: CCGCAAAACCGGTTTTGCCC
B2: Pos_Ctrl_V1 (dsDNA)
DNA 1: GGGCAAAACCGATTTTGCGG
DNA 2: CCGCAAAATCGGTTTTGCCC
B3: Pos_Ctrl_V2 (dsDNA)
DNA 1: GGGCAAAACCGCTTTTGCGG
DNA 2: CCGCAAAAGCGGTTTTGCCC
B4: Pos_Ctrl_V3 (dsDNA)
DNA 1: GGGCAAAACCGTTTTTGCGG
DNA 2: CCGCAAAAACGGTTTTGCCC
B5: Novel (dsDNA)
DNA 1: AGGTTTTTCCACTTTGGGGC
DNA 2: GCCCCAAAGTGGAAAAACCT
B6: Novel_V2 (dsDNA)
DNA 1: AGGTTTTTCCAGTTTGGGGC
DNA 2: GCCCCAAACTGGAAAAACCT
B7: Novel_V1 (dsDNA)
DNA 1: AGGTTTTTCCAATTTGGGGC
DNA 2: GCCCCAAATTGGAAAAACCT
B8: Novel_V3 (dsDNA)
DNA 1: AGGTTTTTCCATTTTGGGGC
DNA 2: GCCCCAAAATGGAAAAACCT
B9: Neg_Ctrl (dsDNA)
DNA 1: GCAAAAAGGAGTCATTGGTG
DNA 2: CACCAATGACTCCTTTTTGC

Target: T1, GRHL1 DNA-binding domain (UniProt Q9NZI5 248-485)
T1 sequence: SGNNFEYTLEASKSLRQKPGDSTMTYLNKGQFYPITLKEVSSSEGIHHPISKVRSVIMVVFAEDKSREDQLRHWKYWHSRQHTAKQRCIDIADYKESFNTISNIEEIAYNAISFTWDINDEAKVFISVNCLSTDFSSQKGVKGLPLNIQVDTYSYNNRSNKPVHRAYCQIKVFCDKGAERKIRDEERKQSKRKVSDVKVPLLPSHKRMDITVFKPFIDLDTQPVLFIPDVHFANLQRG
Assay: ITC; ITC: 20 mM HEPES-NaOH pH 7.2, 125 mM NaCl, 2 mM DTT; ~10 µM dsDNA in cell, GRHL1 165 or 200 µM (Methods: 156 or 200 µM) in syringe; triplicates; temperature not stated
Details: protein: recombinant; tags: His6 tag removed by TEV; chain copies: 2; blunt

Row | Binder | Kd | binding result
1 | B1 | 110 ± 30 nM | 
2 | B2 | 3400 ± 2200 nM | 
3 | B3 | 1540 ± 300 nM | 
4 | B4 | 4350 ± 5400 nM | 
5 | B5 | 180 ± 80 nM | 
6 | B6 | 210 ± 60 nM | 
7 | B7 |  | no binding
8 | B8 |  | no binding
9 | B9 |  | no binding
